Where two headings read alike, the source gives them in different places.

The values below come from paper PMC12212259 (2025).

Common to all, as to test: SPR
(In general: SPR reads the build-up and loss of mass on a sensor chip optically.)

For one assay, the target named is Nb127–biotin (biotin at the C terminus (sortagging)).
Assay [1] has as its target T1, Nb6E-biotin (biotin at the C terminus (sortagging)).
Assay [2] deals with T1, Nb6E-biotin. This is another data set of the same source.
In assay [3] the target is T1, Nb6E-biotin. The source holds these as a separate data set.

T1 sequence (VHH, as listed by the source): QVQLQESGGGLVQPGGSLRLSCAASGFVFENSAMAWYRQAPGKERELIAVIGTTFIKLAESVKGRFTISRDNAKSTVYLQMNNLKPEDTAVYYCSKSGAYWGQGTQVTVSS
Sequence of Nb127–biotin (biotin at the C terminus (sortagging)) (VHH, as listed by the source): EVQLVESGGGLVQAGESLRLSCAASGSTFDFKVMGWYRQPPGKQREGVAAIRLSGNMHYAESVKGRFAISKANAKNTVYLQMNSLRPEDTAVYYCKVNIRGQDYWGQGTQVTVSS

B1: 127-tag peptide (peptide)
chain: SFEDFWKGED
Broadly, the Kd is the free concentration of one partner at which half of the binding sites on the other are occupied at equilibrium, for simple one-to-one binding. A lower Kd goes with higher affinity. In turn, B1 displayed a dissociation constant (Kd) with Nb127–biotin of 16.8 nM.

B2: 6E-M9 (peptide)
chain: QADQEAKEMARQIS
Turning to B2, in the assay with Nb6E-biotin [1], the Kd is 78.2 nM.

B3: 6E-W8 (peptide)
chain: QADQEAKWLARQIS
Turning to B3, the Kd with Nb6E-biotin [2] amounted to 9.2 nM.

B4: G3-6E (peptide)
chain: GGGQADQEAKELARQIS
The molecule B4 showed a Kd with Nb6E-biotin [3] of 4.2 nM.

B5: 6E-W4 (peptide)
chain: QADWEAKELARQIS
Consider B5, for which binding in the assay with Nb6E-biotin [2] was put at a Kd of 15.2 nM.

B6: 6E-W7 (peptide)
chain: QADQEAWELARQIS
With B6, the Kd in the assay with Nb6E-biotin [2] stood at 17.6 nM.

B7: 6E-WT peptide (peptide)
chain: QADQEAKELARQIS
B7 yielded a Kd with Nb6E-biotin [1] of 159 nM.
